Several values for one entry are separate records, joined by “and”; a condition that tells them apart may be missing. Equal entries are not always repeated. Each block holds one binder with its values, some of them ahead of it.
Tests used:
RON [1] = target: T1, RON (UniProt Q04912 25-1400, limits assumed); assay: flow cytometry on cells carrying the target, 2 ug/mL; parent antibody
T1 construct: whole, on cells; also called macrophage stimulating protein receptor tyrosine kinase; MSP receptor

[2] = target: T2, RON (MSP Receptor ECD-His tag, R&D Systems 1947-MS-050) (UniProt Q04912 25-957, limits assumed); assay: Direct bind ELISA on RON; reference antibody
T2 construct: extracellular domain; not shown: His tag

RON [3] = target: T1, RON; assay: flow cytometry on cells carrying the target, 2 ug/mL; N-terminal VD
IGF1R = target: T3, IGF1R (UniProt P08069 31-1367, limits assumed); assay: flow cytometry on cells carrying the target, 2 ug/mL; parent antibody
T3 construct: whole, on cells; also called insulin-like growth factor receptor

CD-80 [4] = target: T4, CD-80 (UniProt P33681 35-288, limits assumed); assay: flow cytometry on cells carrying the target, 2 ug/mL; C-terminal VD
T4 construct: whole, on cells; also called B7-1
T4 sequence (looked up): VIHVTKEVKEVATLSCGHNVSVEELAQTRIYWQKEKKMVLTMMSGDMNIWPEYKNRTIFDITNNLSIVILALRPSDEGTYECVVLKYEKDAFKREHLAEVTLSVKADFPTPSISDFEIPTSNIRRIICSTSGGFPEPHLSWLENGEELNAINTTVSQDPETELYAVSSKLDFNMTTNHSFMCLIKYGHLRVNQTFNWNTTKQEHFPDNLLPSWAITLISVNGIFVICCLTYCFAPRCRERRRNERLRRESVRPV

[5] = target: T5, DLL4 ECD/His tag (R&D 1506-D4-050) (UniProt Q9NR61 27-529); assay: direct bind ELISA, DLL4 on plate; reference antibody
T5 construct: extracellular domain; Bought antigen coated on the ELISA plate; not shown: His tag

CD-80 [6] = target: T4, CD-80; assay: flow cytometry on cells carrying the target, 2 ug/mL; N-terminal VD
CD-20 = target: T6, CD-20 (UniProt P11836 1-297, limits assumed); assay: flow cytometry on cells carrying the target, 2 ug/mL; parent antibody
T6 construct: whole, on cells
T6 sequence (looked up): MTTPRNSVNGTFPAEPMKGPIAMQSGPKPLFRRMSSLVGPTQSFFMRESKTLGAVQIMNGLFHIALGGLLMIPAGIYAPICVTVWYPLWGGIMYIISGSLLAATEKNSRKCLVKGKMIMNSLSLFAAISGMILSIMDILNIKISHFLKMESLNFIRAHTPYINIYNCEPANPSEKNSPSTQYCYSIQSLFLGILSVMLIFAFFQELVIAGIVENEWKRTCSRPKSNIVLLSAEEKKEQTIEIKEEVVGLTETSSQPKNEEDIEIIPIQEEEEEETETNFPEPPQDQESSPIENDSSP

NRP1 = target: T7, NRP1 (UniProt O14786 22-923, limits assumed); assay: as above
T7 construct: whole, on cells; also called neuropilin 1

DLL4 [7] = target: T8, DLL4 (human, UniProt Q9NR61 27-685); assay: as above
T8 construct: whole, on cells; also called human DLL4

DLL4 [8] = target: T8, DLL4; assay: flow cytometry on 293G-human DLL4 cells; reference antibody
[9] = target: T9, VEGF (VEGF 1-165 aa, R&D Systems 293-VE-010) (UniProt P15692 27-191); assay: Direct bind ELISA, VEGF coated on plate; reference antibody printed beside DVD509
T9 construct: bought reagent; also called vascular endothelial growth factor
T9 sequence (P15692 other isoform, or with tags, fused parts or gaps limits assumed): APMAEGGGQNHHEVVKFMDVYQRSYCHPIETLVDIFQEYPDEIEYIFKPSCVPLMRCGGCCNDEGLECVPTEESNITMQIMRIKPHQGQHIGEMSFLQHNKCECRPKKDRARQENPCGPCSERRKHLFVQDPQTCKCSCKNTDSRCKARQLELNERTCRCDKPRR

[10] = target: T9, VEGF (VEGF 1-165 aa, R&D Systems …); assay: Direct bind ELISA, VEGF coated on plate; reference antibody printed beside DVD504
[11] = target: T9, VEGF (VEGF 1-165 aa, R&D Systems …); assay: Direct bind ELISA, VEGF coated on plate; reference antibody printed beside DVD497
[12] = target: T9, VEGF (VEGF 1-165 aa, R&D Systems …); assay: Direct bind ELISA, VEGF coated on plate; reference antibody printed beside DVD491
[13] = target: T9, VEGF (VEGF 1-165 aa, R&D Systems …); assay: Direct bind ELISA, VEGF coated on plate; reference antibody printed beside DVD503
[14] = target: T9, VEGF (VEGF 1-165 aa, R&D Systems …); assay: Direct bind ELISA, VEGF coated on plate; reference antibody printed beside DVD492
[15] = target: T9, VEGF (VEGF 1-165 aa, R&D Systems …); assay: Direct bind ELISA, VEGF coated on plate; reference antibody printed beside DVD510
[16] = target: T9, VEGF (VEGF 1-165 aa, R&D Systems …); assay: Direct bind ELISA, VEGF coated on plate; reference antibody printed beside DVD498
CD-80 [17] = target: T4, CD-80; assay: flow cytometry on cells carrying the target, 2 ug/mL; parent antibody

B1: AB005 (antibody, human IgG1, kappa, V domains shown)
VH: EVQLVQSGGGLVKPGGSLRLSCAASGFTFSSYAMHWVRQAPGKGLEWVAVISYDGSNKYYADSVKGRFTISRDNSKNTLYLQMNSLRAEDTAVYYCARFSGWPNNYYYYGMDVWGQGTTVTVSS
VL: DVVMTQSPLSLPVTPGEPASISCRSSQSLLHSNGFNYVDWYLQKPGQSPHLLIYFGSYRASGVPDRFSGSGSGTDFTLKISRVEAEDVGVYYCMQALQTPPWTFGQGTKVEIRR
notes: Parent antibody
- FACS Geometric Mean (RON [1]): 54.5

B2: AB005 (anti-RON (seq. 1) parent antibody) (antibody, human IgG1, V domains shown)
VH: B1 VH
VL: B1 VL
notes: also called AB005VH; AB005VL
- EC50 [2]: 0.26 nM and 0.69 nM

B6: AB072 (antibody, human IgG1, kappa, V domains shown)
VH: EVQLQQSGPELVKPGASVKMSCKASGYTFTSYVINWVKQKPGQGLEWIGLINPYNDGTKYNEKFKVKATLTSDKSSSTAYMELSSLTSEDSAVYYCASYYYGSRYYFDYWGQGTTLTVSS
VL: DIQMTQSSSYLSVSLGGRVTITCKASDHINNWLAWYQQKPGNAPRLLISGATSLETGVPSRFSGSGSGKDYTLSITSLQTEDVATYYCQQYWSIPLTFGAGTKLELKR
notes: also called AB072-DLL-4
- EC50 [5]: 1.29 nM and 0.7 nM and 1.99 nM and 1.85 nM

B7: DVD006 (bispecific antibody, human IgG1, kappa)
heavy: not shown
light: ESALTQPPSVSGAPGQKVTISCTGSTSNIGGYDLHWYQQLPGTAPKLLIYDINKRPSGISDRFSGSKSGTAASLAITGLQTEDEADYYCQSYDSSLNAQVFGGGTRLTVLGQPKAAPQIVLSQSPAILSPSPGEKVTMTCRASSSVSYIHWFQQKPGSSPKPWIYATSNLASGVPVRFSGSGSGTSYSLTISRVEAEDAATYYCQQWTSNPPTFGGGTKLEIKRTVAAPSVFIFPPSDEQLKSGTASVVCLLNNFYPREAKVQWKVDNALQSGNSQESVTEQDSKDSTYSLSSTLTLSKADYEKHKVYACEVTHQGLSSPVTKSFNRGEC
notes: DVD-Ig; outer AB007 (CD-80), inner AB001 (CD-20); also called CD-80 and CD-20 DVD-Ig
- FACS Geometric Mean N-terminal (CD-80 [6]): 70.7

B9: AB016 (antibody, human IgG1, kappa, V domains shown)
VH: EVQLVESGGGLVQPGGSLRLSCAASGFSFSSEPISWVRQAPGKGLEWVSSITGKNGYTYYADSVKGRFTISADTSKNTAYLQMNSLRAEDTAVYYCARWGKKVYGMDVWGQGTLVTVSS
VL: DIQMTQSPSSLSASVGDRVTITCRASQSISSYLAWYQQKPGKAPKLLIYGASSRASGVPSRFSGSGSGTDFTLTISSLQPEDFATYYCQQYMSVPITFGQGTKVEIKR
notes: Parent antibody
- FACS Geometric Mean (NRP1): 338

B10: AB015 (antibody, human IgG1, kappa)
heavy: not shown
light: DIQMTQSPSSLSASVGDRVTITCRASQDVSTAVAWYQQKPGKAPKLLIYSASFLYSGVPSRFSGSGSGTDFTLTISSLQPEDFATTYYCQQSYTGTVTFGQGTKVEIKRTVAAPSVFIFPPSDEQLKSGTASVVCLLNNFYPREAKVQWKVDNALQSGNSQESVTEQDSKDSTYSLSSTLTLSKADYEKHKVYACEVTHQGLSSPVTKSFNRGEC
notes: Parent antibody; also called AB015
- FACS Geometric Mean (DLL4 [7]): 308
- EC50 (DLL4 [8]): 0.5 nM

B11: AB071 (antibody, human IgG1, kappa, L234A L235A, V domains shown)
VH: EVQLVESGGGLVQPGGSLRLSCAASGFTINASWIHWVRQAPGKGLEWVGAIYPYSGYTNYADSVKGRFTISADTSKNTAYLQMNSLRAEDTAVYYCARWGHSTSPWAMDYWGQGTLVTVSS
VL: DIQMTQSPSSLSASVGDRVTITCRASQVIRRSLAWYQQKPGKAPKLLIYAASNLASGVPSRFSGSGSGTDFTLTISSLQPEDFATYYCQQSNTSPLTFGQGTKVEIKR
notes: Parent anti-VEGF antibody
- EC50 [9]: 37.8 nM
- EC50 [10]: 37.8 nM
- EC50 [11]: 45.7 nM
- EC50 [12]: 45.7 nM
- EC50 [13]: 37.8 nM
- EC50 [14]: 45.7 nM
- EC50 [15]: 37.8 nM
- EC50 [16]: 45.7 nM

Now from value to binder:

- FACS Geometric Mean N-terminal (RON [3]): 6.46
B3: DVD033 (bispecific antibody, human IgG1, kappa)
heavy: not shown
light: DVVMTQSPLSLPVTPGEPASISCRSSQSLLHSNGFNYVDWYLQKPGQSPHLLIYFGSYRASGVPDRFSGSGSGTDFTLKISRVEAEDVGVYYCMQALQTPPWTFGQGTKVEIRRTVAAPDIQMTQSPSSVSASVGDRVTITCRASQGISSWLAWYQQKPGKAPNLLIYEASSLQSGVPSRFGGSGSGTDFTLTISSLQPEDFATYYCQQANGFPWTFGQGTKVEIKRTVAAPSVFIFPPSDEQLKSGTASVVCLLNNFYPREAKVQWKVDNALQSGNSQESVTEQDSKDSTYSLSSTLTLSKADYEKHKVYACEVTHQGLSSPVTKSFNRGEC
notes: DVD-Ig; outer AB005 (RON), inner AB012 (HGF); also called RON and HGF DVD-Ig

- FACS Geometric Mean (IGF1R): 1680
B4: AB011 (antibody, human IgG1, kappa, V domains shown)
VH: EVQLLESGGGLVQPGGSLRLSCTASGFTFSSYAMNWVRQAPGKGLEWVSAISGSGGTTFYADSVKGRFTISRDNSRTTLYLQMNSLRAEDTAVYYCAKDLGWSDSYYYYYGMDVWGQGTTVTVSS
VL: DIQMTQFPSSLSASVGDRVTITCRASQGIRNDLGWYQQKPGKAPKRLIYAASRLHRGVPSRFSGSGSGTEFTLTISSLQPEDFATYYCLQHNSYPCSFGQGTKLEIKR
notes: Parent antibody

- FACS Geometric Mean C-terminal (CD-80 [4]): 6
B5: DVD005 (bispecific antibody, human IgG1, lambda)
heavy: not shown
light: QIVLSQSPAILSPSPGEKVTMTCRASSSVSYIHWFQQKPGSSPKPWIYATSNLASGVPVRFSGSGSGTSYSLTISRVEAEDAATYYCQQWTSNPPTFGGGTKLEIKRTVAAPESALTQPPSVSGAPGQKVTISCTGSTSNIGGYDLHWYQQLPGTAPKLLIYDINKRPSGISDRFSGSKSGTAASLAITGLQTEDEADYYCQSYDSSLNAQVFGGGTRLTVLGQPKAAPSVTLFPPSSEELQANKATLVCLISDFYPGAVTVAWKADSSPVKAGVETTTPSKQSNNKYAASSYLSLTPEQWKSHRSYSCQVTHEGSTVEKTVAPTECS
notes: DVD-Ig; outer AB001 (CD-20), inner AB007 (CD-80); also called CD-20 and CD-80 DVD-Ig

- FACS Geometric Mean (CD-20): 95.8
B8: AB001 (antibody, human IgG1, kappa, V domains shown)
VH: QVQLQQPGAELVKPGASVKMSCKASGYTFTSYNMHWVKQTPGRGLEWIGAIYPGNGDTSYNQKFKGKATLTADKSSSTAYMQLSSLTSEDSAVYYCARSTYYGGDWYFNVWGAGTTVTVSA
VL: QIVLSQSPAILSPSPGEKVTMTCRASSSVSYIHWFQQKPGSSPKPWIYATSNLASGVPVRFSGSGSGTSYSLTISRVEAEDAATYYCQQWTSNPPTFGGGTKLEIKR
notes: Parent antibody; also called anti-CD-20 parent antibody

- FACS Geometric Mean (CD-80 [17]): 25.4
B12: AB007 (antibody, human IgG1, lambda, V domains shown)
VH: QVQLQESGPGLVKPSETLSLTCAVSGGSISGGYGWGWIRQPPGKGLEWIGSFYSSSGNTYYNPSLKSQVTISTDTSKNQFSLKLNSMTAADTAVYYCVRDRLFSVVGMVYNNWFDVWGPGVLVTVSS
VL: ESALTQPPSVSGAPGQKVTISCTGSTSNIGGYDLHWYQQLPGTAPKLLIYDINKRPSGISDRFSGSKSGTAASLAITGLQTEDEADYYCQSYDSSLNAQVFGGGTRLTVLG
notes: Parent antibody; also called anti-CD-80 parent antibody

— patent US20100260668A1 (published 2010)
